From PMC2119758

Molecular target: rabbit muscle F-actin (polymerized rabbit muscle actin) (rabbit) (UniProt P68135)
Assay: co-sedimentation

Substance	stoichiometry N (actin monomers per GST.p80)	fold increase of affinity against GST.p80
GST.p80 fusion protein (cortactin p80 residues 55-526) (domain or fragment)	14	
bacterially expressed cortactin (p80 residues 55-526) after removal of GST with thrombin (domain or fragment)		2 fold
